Test results as given in PMC7018950.

What was measured:
[1] = biological target: His6-tagged Physcomitrella patens chalcone synthase (PpCHS) (Physcomitrella patens); test: BLI; BLItz; His6-tagged CHS immobilised on anti-His6 sensors, GST-tagged CHIL loaded (30-150 s), wash (150-270 s); 100 mM HEPES-NaOH, pH 7.5; 1:1 binding model; apparent KD
[2] = biological target: His6-tagged CHS of ginkgo (Ginkgo biloba); test: BLI; BLItz; His6-tagged CHS immobilised on anti-His6 sensors, GST-tagged CHIL loaded; 100 mM HEPES-NaOH pH 7.5; 1:1 binding model; apparent KD
[3] = biological target: PpCHS (GAL4 two-hybrid fusion) (Physcomitrella patens)
[4] = biological target: His6-tagged rice chalcone synthase 1 (OsCHS-1) (Oryza sativa) (UniProt Q2R3A1); test: BLI; BLItz; His6-tagged CHS immobilised on anti-His6 sensors, GST-tagged CHIL loaded (30-150 s), wash (150-270 s); 100 mM HEPES-NaOH, pH 7.5; 1:1 binding model; apparent KD
Sequence of His6-tagged rice chalcone synthase 1 (OsCHS-1) (Oryza sativa) (Q2R3A1 whole entry): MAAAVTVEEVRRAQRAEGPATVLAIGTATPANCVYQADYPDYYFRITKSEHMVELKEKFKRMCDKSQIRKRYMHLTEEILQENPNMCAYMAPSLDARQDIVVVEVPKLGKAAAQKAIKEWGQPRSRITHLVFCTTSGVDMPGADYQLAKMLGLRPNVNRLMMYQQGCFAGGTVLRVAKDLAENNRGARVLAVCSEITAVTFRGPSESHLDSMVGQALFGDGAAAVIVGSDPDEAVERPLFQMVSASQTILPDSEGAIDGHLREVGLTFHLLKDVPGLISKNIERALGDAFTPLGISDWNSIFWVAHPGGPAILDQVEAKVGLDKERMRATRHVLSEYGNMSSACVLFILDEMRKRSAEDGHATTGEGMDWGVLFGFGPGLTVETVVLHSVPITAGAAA

[5] = biological target: His6-tagged morning glory chalcone synthase D (InCHS-D) (Ipomoea nil) (UniProt O22045); test: as above
Sequence of His6-tagged morning glory chalcone synthase D (InCHS-D) (Ipomoea nil) (O22045 whole entry): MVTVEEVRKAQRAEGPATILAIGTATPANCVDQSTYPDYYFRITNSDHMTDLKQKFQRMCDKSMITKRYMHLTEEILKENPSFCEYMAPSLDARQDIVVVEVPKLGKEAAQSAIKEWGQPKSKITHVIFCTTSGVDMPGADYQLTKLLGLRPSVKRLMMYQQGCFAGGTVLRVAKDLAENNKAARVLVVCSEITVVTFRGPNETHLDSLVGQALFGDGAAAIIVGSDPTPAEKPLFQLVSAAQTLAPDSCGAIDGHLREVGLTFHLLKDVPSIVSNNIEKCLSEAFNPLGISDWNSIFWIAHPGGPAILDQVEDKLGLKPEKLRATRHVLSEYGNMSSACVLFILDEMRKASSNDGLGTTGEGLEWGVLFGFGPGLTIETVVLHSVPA

[6] = biological target: His6-tagged snapdragon CHS (Antirrhinum majus (snapdragon)) (UniProt P06515)
Sequence of His6-tagged snapdragon CHS (Antirrhinum majus (snapdragon)) (P06515 whole entry): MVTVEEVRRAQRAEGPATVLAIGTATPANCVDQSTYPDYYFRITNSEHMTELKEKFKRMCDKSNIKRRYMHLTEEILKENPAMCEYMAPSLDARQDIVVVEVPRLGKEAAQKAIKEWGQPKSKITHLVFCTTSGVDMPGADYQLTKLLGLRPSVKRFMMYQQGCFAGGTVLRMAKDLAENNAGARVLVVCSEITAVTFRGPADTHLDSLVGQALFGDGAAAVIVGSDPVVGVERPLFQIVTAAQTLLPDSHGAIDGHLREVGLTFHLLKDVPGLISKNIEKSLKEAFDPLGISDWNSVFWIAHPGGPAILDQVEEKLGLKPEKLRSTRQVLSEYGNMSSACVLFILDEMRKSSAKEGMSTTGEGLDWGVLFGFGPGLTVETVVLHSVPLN

[7] = biological target: His6-tagged snapdragon CHS (Antirrhinum majus (snapdragon)) (UniProt P06515); test: cross-linking; His6-AmCHIL 10 µM and His6-AmCHS 5 µM with 4 mM BS3 at pH 7.5 for 5 min; SDS-PAGE and immunoblot; band of 70 kDa
[8] = biological target: His6-tagged soybean chalcone synthase isozyme 1 (GmCHS-1) (Glycine max) (UniProt P24826); test: BLI; BLItz; His6-tagged CHS immobilised on anti-His6 sensors, GST-tagged CHIL loaded (30-150 s), wash (150-270 s); 100 mM HEPES-NaOH, pH 7.5; 1:1 binding model; apparent KD
Sequence of His6-tagged soybean chalcone synthase isozyme 1 (GmCHS-1) (Glycine max) (P24826 whole entry): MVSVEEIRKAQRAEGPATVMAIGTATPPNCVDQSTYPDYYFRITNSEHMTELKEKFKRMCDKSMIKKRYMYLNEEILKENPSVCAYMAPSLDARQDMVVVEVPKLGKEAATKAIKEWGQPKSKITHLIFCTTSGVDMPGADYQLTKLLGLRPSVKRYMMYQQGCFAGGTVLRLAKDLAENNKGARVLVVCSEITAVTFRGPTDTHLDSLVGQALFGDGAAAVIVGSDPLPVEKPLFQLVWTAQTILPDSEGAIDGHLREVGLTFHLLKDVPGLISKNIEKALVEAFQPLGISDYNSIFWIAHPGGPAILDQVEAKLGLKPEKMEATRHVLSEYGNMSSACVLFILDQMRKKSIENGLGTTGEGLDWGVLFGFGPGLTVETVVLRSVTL

[9] = biological target: His6-tagged soybean chalcone synthase isozyme 7 (GmCHS-7) (Glycine max) (UniProt P30081); test: as above
Sequence of His6-tagged soybean chalcone synthase isozyme 7 (GmCHS-7) (Glycine max) (P30081 whole entry): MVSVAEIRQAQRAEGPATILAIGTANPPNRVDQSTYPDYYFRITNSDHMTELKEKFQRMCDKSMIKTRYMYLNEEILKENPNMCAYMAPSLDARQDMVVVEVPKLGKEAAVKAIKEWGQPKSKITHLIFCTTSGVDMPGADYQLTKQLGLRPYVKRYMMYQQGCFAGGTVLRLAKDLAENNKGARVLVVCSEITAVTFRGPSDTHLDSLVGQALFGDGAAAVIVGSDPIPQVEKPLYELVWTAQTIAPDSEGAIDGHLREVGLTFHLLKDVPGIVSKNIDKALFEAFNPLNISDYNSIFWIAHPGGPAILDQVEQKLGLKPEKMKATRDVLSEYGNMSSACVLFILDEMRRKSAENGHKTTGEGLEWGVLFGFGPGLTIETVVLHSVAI

[10] = biological target: His6-tagged Hydrangea macrophylla chalcone synthase (HmCHS) (Hydrangea macrophylla) (UniProt O82144); test: as above
Sequence of His6-tagged Hydrangea macrophylla chalcone synthase (HmCHS) (Hydrangea macrophylla) (O82144 whole entry): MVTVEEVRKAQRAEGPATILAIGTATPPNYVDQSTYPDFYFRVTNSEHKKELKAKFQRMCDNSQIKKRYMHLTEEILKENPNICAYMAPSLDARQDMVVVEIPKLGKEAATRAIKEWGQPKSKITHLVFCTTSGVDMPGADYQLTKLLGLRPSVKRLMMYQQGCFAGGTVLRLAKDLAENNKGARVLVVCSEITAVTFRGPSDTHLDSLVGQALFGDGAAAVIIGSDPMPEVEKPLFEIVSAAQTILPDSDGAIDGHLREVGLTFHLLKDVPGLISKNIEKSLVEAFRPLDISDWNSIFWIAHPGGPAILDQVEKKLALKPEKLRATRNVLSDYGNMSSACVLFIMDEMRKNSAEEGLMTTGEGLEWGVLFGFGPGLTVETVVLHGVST

[11] = biological target: His6-tagged Selaginella moellendorffii chalcone synthase (SmCHS) (Selaginella moellendorffii); test: as above
[12] = biological target: His6-tagged Ginkgo biloba chalcone synthase (GbCHS) (Ginkgo biloba); test: as above
[13] = biological target: His6-tagged snapdragon chalcone synthase (His6-AmCHS) (Antirrhinum majus) (UniProt P06515); test: as above
Sequence of His6-tagged snapdragon chalcone synthase (His6-AmCHS) (Antirrhinum majus) (P06515 whole entry): as the sequence (P06515 whole entry) above

Sequence of His6-tagged Physcomitrella patens chalcone synthase (PpCHS) (Physcomitrella patens) (Q2VAZ3 entry or part of it): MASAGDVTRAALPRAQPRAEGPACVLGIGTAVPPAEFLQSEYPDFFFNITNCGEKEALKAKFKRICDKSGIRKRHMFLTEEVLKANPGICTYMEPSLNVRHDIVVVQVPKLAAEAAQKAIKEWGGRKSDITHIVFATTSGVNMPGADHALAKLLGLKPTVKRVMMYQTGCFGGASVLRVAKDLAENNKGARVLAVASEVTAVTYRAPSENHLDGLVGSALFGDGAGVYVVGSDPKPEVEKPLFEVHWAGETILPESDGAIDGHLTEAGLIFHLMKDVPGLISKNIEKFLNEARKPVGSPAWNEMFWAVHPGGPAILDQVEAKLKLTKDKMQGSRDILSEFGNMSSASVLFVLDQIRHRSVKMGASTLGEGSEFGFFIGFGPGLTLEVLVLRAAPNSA

glutathione S-transferase-tagged Physcomitrella patens chalcone isomerase-like protein A (PpCHIL-A) (natural protein)
Kd [1]: 0.00269 µM | koff [1]: 0.000319 s⁻¹ | kon [1]: 118000 M⁻¹ s⁻¹

glutathione S-transferase-tagged CHIL of ginkgo (natural protein)
Kd [2]: 0.126 µM

PpCHIL (GAL4 two-hybrid fusion) (natural protein)
E value (chalconoid excess over CTAL) of the reaction catalysed by 0.1 µM PpCHS in the presence of 1 µM CHIL (−67% without CHIL); purified recombinant proteins [3]: 90%

glutathione S-transferase-tagged rice chalcone isomerase-like protein A (OsCHIL-A) (natural protein)
Kd [4]: 0.0644 µM | koff [4]: 0.000672 s⁻¹ | kon [4]: 10400 M⁻¹ s⁻¹

glutathione S-transferase-tagged morning glory chalcone isomerase-like protein (InCHIL) (natural protein)
Kd [5]: 0.00105 µM | koff [5]: 0.000206 s⁻¹ | kon [5]: 196000 M⁻¹ s⁻¹

His6-tagged snapdragon CHIL (natural protein)
E value (chalconoid excess over CTAL) of the reaction catalysed by 0.1 µM AmCHS in the presence of 1 µM CHIL (+18% without CHIL) [6]: 80% | amount of THC and naringenin (chalconoids) formed by 0.1 µM AmCHS with 1.0 µM AmCHIL against without, with a substantial decrease in CTAL formation [6]: 1.7 fold | stoichiometry N (CHIL monomer per CHS monomer) [7]: 1

glutathione S-transferase-tagged soybean chalcone isomerase-like protein (GmCHIL) (natural protein)
Kd [8]: 0.00746 µM | koff [8]: 0.000381 s⁻¹ | kon [8]: 51000 M⁻¹ s⁻¹ | Kd [9]: 0.0193 µM | koff [9]: 0.00113 s⁻¹ | kon [9]: 58300 M⁻¹ s⁻¹

glutathione S-transferase-tagged Hydrangea macrophylla chalcone isomerase-like protein (HmCHIL) (natural protein)
Kd [10]: 0.0241 µM | koff [10]: 0.00277 s⁻¹ | kon [10]: 115000 M⁻¹ s⁻¹

glutathione S-transferase-tagged Selaginella moellendorffii chalcone isomerase-like protein (SmCHIL) (natural protein)
Kd [11]: 0.0566 µM | koff [11]: 0.000674 s⁻¹ | kon [11]: 11900 M⁻¹ s⁻¹

glutathione S-transferase-tagged Ginkgo biloba chalcone isomerase-like protein (GbCHIL) (natural protein)
koff [12]: 0.000154 s⁻¹ | kon [12]: 20200 M⁻¹ s⁻¹

glutathione S-transferase-tagged snapdragon chalcone isomerase-like protein (AmCHIL) (natural protein)
Kd [13]: 0.0626 µM | koff [13]: 0.00183 s⁻¹ | kon [13]: 29300 M⁻¹ s⁻¹
